Measured values as given in FireProtDB (doi:10.1110/ps.38602).

Conditions: pH 5.5, CD, NaOAc 20 mM, KCl 50 mM, reversible: yes, whole UniProt chain shown; for denaturant m value / unfolding free energy: 25 °C; for Tm / heat capacity change of unfolding: Thermal
[1] = Escherichia coli (strain K12), GdnHCl
[2] = Escherichia coli (strain K12), Urea
[3] = Thermus thermophilus (strain ATCC 27634 / DSM 579 / HB8), GdnHCl
[4] = Thermus thermophilus (strain ATCC 27634 / DSM 579 / HB8)

Protein | denaturant m value [1] [kcal/mol/M] | unfolding free energy [1] [kcal/mol] | denaturant m value [2] [kcal/mol/M] | unfolding free energy [2] [kcal/mol] | Tm (Escherichia coli (strain K12)) [°C] | heat capacity change of unfolding (Escherichia coli (strain K12)) [kcal/mol/K] | denaturant m value [3] [kcal/mol/M] | unfolding free energy [3] [kcal/mol] | Tm [4] [°C] | heat capacity change of unfolding [4] [kcal/mol/K]
Ribonuclease HI wild type, P0A7Y4 (protein) MLKQVEIFTDGSCLGNPGPGGYGAILRYRGREKTFSAGYTRTTNNRMELMAAIVALEALKEHCEVILSTDSQYVRQGITQWIHNWKKRGWKTADKKPVKNVDLWQRLDAALGQHQIKWEWVKGHAGHPENERCDELARAAAMNPTLEDTGYQVEV | 4.9 | 7.6 | 2.1 | 9.7 | 66 | 2.7 | – | – | – | –
Ribonuclease H wild type, P29253 (protein) MNPSPRKRVALFTDGACLGNPGPGGWAALLRFHAHEKLLSGGEACTTNNRMELKAAIEGLKALKEPCEVDLYTDSHYLKKAFTEGWLEGWRKRGWRTAEGKPVKNRDLWEALLLAMAPHRVRFHFVKGHTGHPENERVDREARRQAQSQAKTPCPPRAPTLFHEEA | – | – | – | – | – | – | 4.4 | 12.2 | 86 | 1.8
